Measurements reported in PMC3364985, “Staphylococcus aureus Surface Protein SdrE Binds Complement Regulator Factor H as an Immune Evasion Tactic” (PLoS ONE, 2012).

B1: complement regulatory protein factor H (natural protein)
chain: EDCNELPPRRNTEILTGSWSDQTYPEGTQAIYKCRPGYRSLGNVIMVCRKGEWVALNPLRKCQKRPCGHPGDTPFGTFTLTGGNVFEYGVKAVYTCNEGYQLLGEINYRECDTDGWTNDIPICEVVKCLPVTAPENGKIVSSAMEPDREYHFGQAVRFVCNSGYKIEGDEEMHCSDDGFWSKEKPKCVEISCKSPDVINGSPISQKIIYKENERFQYKCNMGYEYSERGDAVCTESGWRPLPSCEEKSCDNPYIPNGDYSPLRIKHRTGDEITYQCRNGFYPATRGNTAKCTSTGWIPAPRCTLKPCDYPDIKHGGLYHENMRRPYFPVAVGKYYSYYCDEHFETPSGSYWDHIHCTQDGWSPAVPCLRKCYFPYLENGYNQNYGRKFVQGKSIDVACHPGYALPKAQTTVTCMENGWSPTPRCIRVKTCSKSSIDIENGFISESQYTYALKEKAKYQCKLGYVTADGETSGSITCGKDGWSAQPTCIKSCDIPVFMNARTKNDFTWFKLNDTLDYECHDGYESNTGSTTGSIVCGYNGWSDLPICYERECELPKIDVHLVPDRKKDQYKVGEVLKFSCKPGFTIVGPNSVQCYHFGLSPDLPICKEQVQSCGPPPELLNGNVKEKTKEEYGHSEVVEYYCNPRFLMKGPNKIQCVDGEWTTLPVCIVEESTCGDIPELEHGWAQLSSPPYYYGDSVEFNCSESFTMIGHRSITCIHGVWTQLPQCVAIDKLKKCKSSNLIILEEHLKNKKEFDHNSNIRYRCRGKEGWIHTVCINGRWDPEVNCSMAQIQLCPPPPQIPNSHNMTTTLNYRDGEKVSVLCQENYLIQEGEEITCKDGRWQSIPLCVEKIPCSQPPQIEHGTINSSRSSQESYAHGTKLSYTCEGGFRISEENETTCYMGKWSSPPQCEGLPCKSPPEISHGVVAHMSDSYQYGEEVTYKCFEGFGIDGPAIAKCLGEKWSHPPSCIKTDCLSLPSFENAIPMGEKKDVYKAGEQVTYTCATYYKMDGASNVTCINSRWTGRPTCRDTSCVNPPTVQNAYIVSRQMSKYPSGERVRYQCRSPYEMFGDEEVMCLNGNWTEPPQCKDSTGKCGPPPPIDNGDITSFPLSVYAPASSVEYQCQNLYQLEGNKRITCRNGQWSEPPKCLHPCVISREIMENYNIALRWTAKQKLYSRTGESVEFVCKRGYRLSSRSHTLRTTCWDGKLEYPTCAKR
notes: complement factor H, human, 155 kDa plasma protein; the assay's purified field tells the two apart; also called fH; purified fH; source: bought: CompTech (purified fH)

Assays:
[1] = molecular target: recombinant SdrE (6×His-tagged A region of serine-aspartate repeat-containing protein E) (S. aureus); assay: far-Western, overlay or dot blot; 5 µg of rSdrE, rClfA and BSA adsorbed to a PVDF membrane, blocked with 3% BSA/TBST, overlaid with purified fH (20 µg fH/10 ml block buffer) overnight; anti-fH, ECL, optical densitometry against a purified fH dilution series
Chain of recombinant SdrE (6×His-tagged A region of serine-aspartate repeat-containing protein E) (S. aureus) (O86489 53-606 limits assumed): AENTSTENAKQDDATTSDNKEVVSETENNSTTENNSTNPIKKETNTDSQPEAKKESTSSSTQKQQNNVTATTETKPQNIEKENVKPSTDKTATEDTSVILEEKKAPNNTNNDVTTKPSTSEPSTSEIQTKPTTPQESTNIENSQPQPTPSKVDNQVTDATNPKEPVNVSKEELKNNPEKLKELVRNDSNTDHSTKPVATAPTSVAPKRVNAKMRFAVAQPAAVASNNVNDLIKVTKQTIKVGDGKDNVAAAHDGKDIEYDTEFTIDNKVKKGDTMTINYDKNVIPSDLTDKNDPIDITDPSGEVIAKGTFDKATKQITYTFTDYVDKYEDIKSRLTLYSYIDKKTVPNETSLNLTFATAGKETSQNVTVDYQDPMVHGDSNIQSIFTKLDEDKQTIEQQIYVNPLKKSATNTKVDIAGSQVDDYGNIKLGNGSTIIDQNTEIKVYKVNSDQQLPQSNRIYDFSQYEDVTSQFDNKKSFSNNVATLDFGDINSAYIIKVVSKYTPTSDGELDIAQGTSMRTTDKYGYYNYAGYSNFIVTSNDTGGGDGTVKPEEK

[2] = molecular target: T1, SdrE expressed on the surface of Lactococcus lactis (pKS80-SdrE) (S. aureus, UniProt O86489 53-1132); assay: far-Western, overlay or dot blot; whole L. lactis (pKS80-SdrE or pKS80) immobilised on a PVDF membrane, overlaid with 5% HI-serum in 0.05% gelatin/PBST for 1 hr; anti-fH, optical densitometry against a serum dilution series; details: partners not purified
T1 construct: Compared throughout with L. lactis carrying the empty vector pKS80; also called L. lactis (pKS80-SdrE); SdrE-expressing L. lactis; source: L. lactis, constitutively expressed from pKS80, on the bacterial surface
T1 sequence (O86489 53-1132): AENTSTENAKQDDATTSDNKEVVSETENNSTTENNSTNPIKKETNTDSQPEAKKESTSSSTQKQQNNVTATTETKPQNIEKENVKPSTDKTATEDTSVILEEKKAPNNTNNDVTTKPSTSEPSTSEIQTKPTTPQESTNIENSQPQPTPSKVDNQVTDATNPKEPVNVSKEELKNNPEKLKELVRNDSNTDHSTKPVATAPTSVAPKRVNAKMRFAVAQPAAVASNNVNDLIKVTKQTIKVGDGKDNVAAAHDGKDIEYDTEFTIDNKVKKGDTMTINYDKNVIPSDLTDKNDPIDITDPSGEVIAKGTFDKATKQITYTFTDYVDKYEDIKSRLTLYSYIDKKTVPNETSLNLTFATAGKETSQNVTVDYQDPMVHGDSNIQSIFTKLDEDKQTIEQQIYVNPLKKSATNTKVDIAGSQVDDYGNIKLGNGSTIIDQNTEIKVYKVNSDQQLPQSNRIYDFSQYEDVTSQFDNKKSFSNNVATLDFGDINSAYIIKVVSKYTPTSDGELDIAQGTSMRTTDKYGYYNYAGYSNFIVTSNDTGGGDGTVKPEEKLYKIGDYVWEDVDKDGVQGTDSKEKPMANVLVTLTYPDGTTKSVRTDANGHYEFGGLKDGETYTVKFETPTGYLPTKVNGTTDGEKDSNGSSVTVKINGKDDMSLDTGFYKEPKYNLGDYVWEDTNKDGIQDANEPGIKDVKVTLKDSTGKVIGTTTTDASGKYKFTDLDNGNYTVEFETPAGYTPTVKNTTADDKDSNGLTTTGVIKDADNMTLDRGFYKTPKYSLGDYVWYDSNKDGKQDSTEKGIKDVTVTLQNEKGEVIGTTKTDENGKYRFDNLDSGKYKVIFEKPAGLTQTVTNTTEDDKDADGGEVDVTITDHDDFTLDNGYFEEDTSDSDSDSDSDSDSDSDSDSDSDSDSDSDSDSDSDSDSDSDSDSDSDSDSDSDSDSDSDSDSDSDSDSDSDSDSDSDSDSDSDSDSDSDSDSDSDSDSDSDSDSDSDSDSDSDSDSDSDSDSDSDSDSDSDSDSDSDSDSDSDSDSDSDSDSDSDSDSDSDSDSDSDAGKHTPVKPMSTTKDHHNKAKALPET

[3] = molecular target: T1, SdrE expressed on the surface of …; assay: binding to whole bacteria in solution, SDS extraction, fH ELISA; L. lactis (OD600 = 4.0) in GVBS^++ with various amounts of HI-serum, 1 hr, 37°C; bound proteins extracted with 2% SDS; fH ELISA with chicken antibodies specific for human fH; details: partners not purified

Molecule | amount of fH bound [1] [ng] | fold more serum fH bound than on L. lactis (pKS80) [2] [fold] | fold more serum fH bound than on L. lactis (pKS80) [3] [fold]
complement regulatory protein factor H (from UniProt P08603 19-1231) (natural protein) | 2.2 |  | 
B1 |  | 4 | ≤ 4
